Experimental data taken from US20190153103A1 (AbbVie / Abbott, published 2019).
Where a chain is given by its changes, count along the chain named.

B1: SC91.129 (antibody, V domains shown)
VH: QVQLQQPGAELVKPGASVKLSCKASGYTFTNYWMQWVKQRPGQGLEWIGEIDPSDRYTLYNQKFKDKATLTVDTSSSTAYMQLSSLTSEDSAVYYCARFGYYVDYWGQGTTLTVSS
VL: DAVMTQSPLSLPVSLGDQASISCRSSQSLVHSTGNTYLHWYLQKPGQSPKLLIYKVSNRFSGVPDRFSGSGSGTDFTLKISRVEAEDLGVYFCSQTTHVPFTFGSGTKLEIK
notes: copies: 2 + 2
B2: SC91.149 (antibody, V domains shown)
VH: B1 VH with Q5L, A16S, L20V, R56T, D66G
VL: B1 VL with A2V, S7T, L38F, K50E, S68R, T96S
B3: SC91.172 (antibody, V domains shown)
VH: B1 VH with E10D, A16T, N31S, R56T, L59M, D66G
VL: B1 VL with A2V, S7T, P45A, T96S
B4: SC91.187 (antibody, V domains shown)
VH: B1 VH with A9P, L11F, N31S, M34V, R56N, K63N, D66G, Y101F
VL: B1 VL with A2V, S7T, D17E, T96S
B5: SC91.160 (antibody, V domains shown)
VH: QIQLVQSGPELKKPGETVKISCKASGYTFTTYGMNWVKQAPGKGLKWMGWINTYSGVPSSADDFKGRFAFSLETSASTAYLLINNLKNEDTATYFCARSELRNWYFDVWGTGTTVTVSS
VL: SFVMTQTPKFLLVSAGDRVTITCKASQNMGHDVAWYQQKPGQSPKLLIYSASNRYTGVPDRFTGSGYGTDFTFTISTVQAEDLAVYFCQQDYSSPFTFGSGTKLEMK
B6: SC91.119 (antibody, V domains shown)
VH: QVTLKESGPGILQPSQTLSLTCSFSGLSLSTPGMSVGWIRQPSGKGLEWLAHIWWNDDKSYNPALKSRLTISKDTSNNQVFLKIASVVTADTATYYCARGDRFAYWGQGTLVTVSA
VL: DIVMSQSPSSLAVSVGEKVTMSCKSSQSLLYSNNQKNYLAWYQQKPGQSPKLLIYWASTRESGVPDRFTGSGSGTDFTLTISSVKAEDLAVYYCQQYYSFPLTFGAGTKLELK
B7: SC91.138 (antibody, V domains shown)
VH: QVQLQQPGAELVMPGASVKLSCKASGYTFTNYWMHWVKQRPGQGLEWIGEIDPSDVYTTYNQKFKDKATLTVDKSSSTAYMQLINLTSEDSAVYYCARSGWDYFDYWGQGTALTVSS
VL: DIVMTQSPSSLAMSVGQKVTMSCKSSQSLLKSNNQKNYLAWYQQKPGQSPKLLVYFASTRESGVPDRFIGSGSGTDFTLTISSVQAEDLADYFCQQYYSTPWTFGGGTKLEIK
B8: SC91.146 (antibody, V domains shown)
VH: QVQLQQPGAELVKPGASVKLSCKASGYTFTSYWMHWVKQRPGQGLEWIGDIDPSDRYTNYNQKFKGKATLTVDTTSSTAYMQLSSLTSEDSAVYYCAISGWDYFDYWGQGTTLTVSS
VL: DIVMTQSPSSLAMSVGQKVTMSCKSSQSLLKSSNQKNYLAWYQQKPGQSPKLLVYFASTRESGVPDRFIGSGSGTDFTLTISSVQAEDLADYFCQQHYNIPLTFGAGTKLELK
B9: SC91.111 (antibody, V domains shown)
VH: B5 VH with F29L, S59A, S60Y, L82Q, L86F
VL: B5 VL with D32N, S50Y, M106I
notes: copies: 2 + 2
B10: SC91.155 (antibody, V domains shown)
VH: B5 VH with T53S, S59A, S60Y, S75F, L82Q, K87R, N88D
VL: B5 VL with M29L, H31N, K45R, S50F, M106I
B11: SC91.20 (antibody, V domains shown)
VH: B1 VH with L11V, K13R, V18L, N31S, V37I, R56N, L59M, D66G, Y95F, Y101F
VL: B1 VL with A2V, S7T, K50N, T96S

These binders were tested against T1, Cyno-his (cynomolgus) (assay: Biacore).
T1 construct: extracellular domain; soluble analyte of the Biacore runs; also called cSCRx91-his; cBMPR1B-CHis

| Binder | Kd |
| --- | --- |
| B1 | 1.62 nM |
| B2 | 2 nM |
| B3 | 4.47 nM |
| B4 | 5.58 nM |
| B5 | 38.8 nM |
| B6 | 5.52 nM |
| B7 | 0.937 nM |
| B8 | < 0.1 nM |

What follows are binders tested against T2, hBMPR1B-His (human BMPR1B extracellular domain, residues K14 to R126, with C-terminal 9x-Histidine tag) (human, UniProt O00238 14-126) (assay: Biacore).
T2 construct: Residues K14-R126 are counted on the hBMPR1B ORF (NM_001203); The IgK signal peptide of the vector is left out; also called hBMPR1B-CHis; human BMPR1B-his
T2 sequence: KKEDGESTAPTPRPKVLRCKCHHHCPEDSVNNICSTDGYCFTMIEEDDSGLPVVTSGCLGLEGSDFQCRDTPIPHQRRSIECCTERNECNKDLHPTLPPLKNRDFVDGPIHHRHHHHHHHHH

| Binder | Kd |
| --- | --- |
| B1 | 0.564 nM |
| B2 | 1.03 nM |
| B3 | 1.96 nM |
| B4 | 2.86 nM |
| B5 | 3.12 nM |
| B9 | 6.67 nM |
| B10 | 1.12 nM |
| B6 | 6.44 nM |
| B7 | 0.658 nM |
| B8 | 1.21 nM |

Target: T3, rat-his
T3 construct: soluble analyte of the Biacore runs; also called rSCRx91-his; rBMPR1B-CHis
T3 chain: T2 sequence with P12A, L51T, N102D, R113K
Assay: Biacore

| Binder | Kd | binding result |
| --- | --- | --- |
| B1 | 0.561 nM |  |
| B2 | < 0.1 nM |  |
| B3 | 1.18 nM |  |
| B4 | 3.25 nM |  |
| B5 |  | binds |
| B10 |  | binds |
| B6 | 5.35 nM |  |
| B7 | 1.84 nM |  |
| B8 | < 2 nM |  |

What follows are binders tested against T4, rat BMPR1B overexpressed on the surface of HEK293T cells (N-terminal Asp-Lys epitope tag, … (rat, UniProt A0A8I6A0G0 62-550)) (assay: cell-based or functional assay).
T4 sequence (chain, as listed by the source): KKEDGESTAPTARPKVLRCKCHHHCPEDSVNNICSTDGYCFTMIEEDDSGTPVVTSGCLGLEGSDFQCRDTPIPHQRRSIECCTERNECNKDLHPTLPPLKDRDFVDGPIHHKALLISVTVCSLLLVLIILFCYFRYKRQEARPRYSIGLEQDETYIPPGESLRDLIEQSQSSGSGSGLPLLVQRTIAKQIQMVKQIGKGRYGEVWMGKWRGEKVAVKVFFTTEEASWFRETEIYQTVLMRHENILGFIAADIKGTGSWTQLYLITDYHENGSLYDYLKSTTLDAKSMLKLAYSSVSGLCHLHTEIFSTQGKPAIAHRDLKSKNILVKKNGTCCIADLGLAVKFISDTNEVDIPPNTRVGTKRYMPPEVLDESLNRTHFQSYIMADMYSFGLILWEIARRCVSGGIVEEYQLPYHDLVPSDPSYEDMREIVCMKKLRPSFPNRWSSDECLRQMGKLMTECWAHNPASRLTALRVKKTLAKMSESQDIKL

| Binder | % live, Fab-saporin, 100pM |
| --- | --- |
| B11 | 18.2% |

These binders were tested against T5, human BMPR1B overexpressed on the surface of HEK293T cells (N-terminal Asp-Lys epitope tag, … (human, UniProt O00238 14-502)) (assay: cell-based or functional assay).

| Binder | % live, Fab-saporin, 100pM |
| --- | --- |
| B11 | 10.4% |

Each binder was assayed against T4, rat BMPR1B overexpressed on the surface … (assay: flow cytometry).

| Binder | Flow cytometry MFI |
| --- | --- |
| B11 | 5940 |

These binders were tested against T5, human BMPR1B overexpressed on the … (assay: flow cytometry).

| Binder | Flow cytometry MFI |
| --- | --- |
| B11 | 7480 |

Each binder was assayed against T6, hBMPR1B-Fc (human BMPR1B extracellular domain, residues K14 to R126, fused to human IgG2 Fc) (human, UniProt O00238 14-126) (assay: ELISA).
T6 construct: also called BMPR1B fused to human Fc fragment; not shown: human IgG2 Fc protein
T6 sequence: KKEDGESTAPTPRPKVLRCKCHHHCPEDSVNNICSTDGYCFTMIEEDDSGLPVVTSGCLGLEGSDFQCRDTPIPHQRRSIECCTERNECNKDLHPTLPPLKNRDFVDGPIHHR

| Binder | ELISA |
| --- | --- |
| B11 | 0.462 |

Each binder was assayed against T7, irrelevant Fc-tagged protein (assay: ELISA).
T7 construct: ELISA control; also called irrelevant Fc construct

| Binder | ELISA |
| --- | --- |
| B11 | 0.041 |

These binders were tested against T8, BMPR1A-Fc (recombinant protein used in the screen 1 ELISA) (human, UniProt P36894 24-152, limits assumed) (assay: ELISA).
T8 construct: also called human BMPR1A; not shown: Fc
T8 sequence (P36894 24-152 limits assumed): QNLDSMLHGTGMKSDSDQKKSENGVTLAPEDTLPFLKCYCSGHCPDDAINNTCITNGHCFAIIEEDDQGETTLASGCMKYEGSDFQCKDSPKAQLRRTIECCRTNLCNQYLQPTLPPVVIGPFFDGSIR

| Binder | ELISA |
| --- | --- |
| B11 | 0.116 |

Each binder was assayed against T2, hBMPR1B-His (human BMPR1B extracellular …) (assay: ELISA).

| Binder | ELISA |
| --- | --- |
| B11 | 1.01 |

Each binder was assayed against T9, human BMPR1B coated on MSD plates (construct not stated) (human, UniProt O00238 14-126, limits assumed) (assay: MSD ELISA, BMP2 blocked).
T9 construct: also called BMPR1B receptor
T9 sequence: T6 sequence
Parameters: concentration or dose not given beside the values

| Binder | % inhibition |
| --- | --- |
| B1 | 40% |
| B2 | 47% |
| B3 | 51% |
| B4 | 37% |
| B5 | 47% |
| B9 | 36% |
| B10 | 49% |
| B6 | 35% |
| B7 | 10% |
| B8 | 29% |

Target: T4, rat BMPR1B overexpressed on the surface …
Assay: cell-based or functional assay
Remark: another data set of the same source

| Binder | % live, Fab-saporin, 250pM |
| --- | --- |
| B1 | 39.2% |
| B2 | 29.1% |
| B3 | 34.1% |
| B4 | 36.7% |
| B5 | 77.9% |
| B9 | 87.1% |
| B10 | 81.1% |
| B6 | 40.8% |
| B7 | 37.3% |
| B8 | 38.8% |

These binders were tested against T10, cynomolgus BMPR1B overexpressed on the surface of HEK293T cells (N-terminal Asp-Lys epitope tag, … (cynomolgus)) (assay: cell-based or functional assay).

| Binder | % live, Fab-saporin, 250pM |
| --- | --- |
| B1 | 18.5% |
| B2 | 20.7% |
| B3 | 18% |
| B4 | 24.2% |
| B5 | 34.6% |
| B9 | 52.9% |
| B10 | 45.1% |
| B6 | 34.7% |
| B7 | 17.6% |
| B8 | 25.4% |

Target: T5, human BMPR1B overexpressed on the …
Assay: cell-based or functional assay
Remark: another data set of the same source

| Binder | % live, Fab-saporin, 250pM |
| --- | --- |
| B1 | 23.1% |
| B2 | 18.3% |
| B3 | 19.6% |
| B4 | 19.1% |
| B5 | 24.3% |
| B9 | 20.3% |
| B10 | 29.3% |
| B6 | 24.9% |
| B7 | 21% |
| B8 | 20.5% |

Target: T1, Cyno-his
Assay: Biacore
Remark: another data set of the same source

| Binder | Kd |
| --- | --- |
| B11 | 2.3 nM |

Target: T2, hBMPR1B-His (human BMPR1B extracellular …)
Assay: Biacore
Remark: another data set of the same source

| Binder | Kd |
| --- | --- |
| B11 | 0.934 nM |

Target: T3, rat-his
Assay: Biacore
Remark: another data set of the same source

| Binder | Kd |
| --- | --- |
| B11 | 1.91 nM |

These binders were tested against T9, human BMPR1B coated on MSD plates … (assay: MSD ELISA, BMP4 blocked).
Parameters: concentration or dose not given beside the values

| Binder | % inhibition |
| --- | --- |
| B1 | 83% |
| B2 | 84% |
| B3 | 81% |
| B4 | 83% |
| B5 | 79% |
| B9 | 69% |
| B10 | 79% |
| B6 | 65% |
| B7 | 79% |
| B8 | 79% |

Target: T4, rat BMPR1B overexpressed on the surface …
Assay: flow cytometry
Remark: another data set of the same source

| Binder | gMFI |
| --- | --- |
| B1 | 10200 |
| B2 | 10600 |
| B3 | 9510 |
| B4 | 9680 |
| B9 | 3810 |
| B10 | 7690 |
| B6 | 7510 |
| B7 | 9660 |
| B8 | 6220 |

These binders were tested against T10, cynomolgus BMPR1B overexpressed on the … (assay: flow cytometry).

| Binder | gMFI |
| --- | --- |
| B1 | 16000 |
| B2 | 15400 |
| B3 | 15000 |
| B4 | 14800 |
| B5 | 15800 |
| B9 | 9120 |
| B10 | 14600 |
| B6 | 11500 |
| B7 | 16000 |
| B8 | 10900 |

Target: T5, human BMPR1B overexpressed on the …
Assay: flow cytometry
Remark: another data set of the same source

| Binder | gMFI |
| --- | --- |
| B1 | 26900 |
| B2 | 27000 |
| B3 | 24000 |
| B4 | 25900 |
| B5 | 27000 |
| B9 | 25200 |
| B10 | 25300 |
| B6 | 17300 |
| B7 | 24500 |
| B8 | 15800 |
